B1: GST-16E7: HPV16 E7 protein expressed as a glutathione-S-transferase (GST) fusion protein (protein)
chain: MHGDTPTLHEYMLDLQPETTDLYCYEQLNDSSEEEDEIDGPAGQAEPDRAHYNIVTFCCKCDSTLRLCVQSTHVDIRTLEDLLMGTLGIVCPICSQKP
modifications: left off: a dimerising Fc or GST

Tests used:
[1] = test system: CDK2; assay: Effect of E7 on p21/p27 inhibition of CDK2 kinase activity; assay type: biochemical
Method: Histone H1 was chosen as the substrate in the kinase assays since pRb, a physiological CDK2 substrate, is known to bind E7 and could interfere with the assay.
For some assays, HEK293 cell lysate (100 μg total protein, prepared as described above) was preincubated with purified GST-31E7 protein in PBS in the presence of p13 agarose beads (Calbiochem) at 4° C. for one hour, and subsequently incubated with purified His-p27 for 30 min at 4° C. Preincubation was carried out to permit protein complex formation, while p13 agarose beads bind cyclin-dependent kinase complexes to facilitate purification [Dreatta, et al., Cell 56:829-838 (1989)]. After collection and washing four times with PBS, the beads were washed two additional times with KIP buffer containing 50 mM Tris-Cl, pH 7.5, 10 mM MgCl2, 5 mM EGTA, 2 mM DTT, and 10 μM ATP. […] Phosphorylated proteins were analyzed by SDS-PAGE followed by autoradiography and PhosphorImager® analysis.
In other assays, purified cyclin A- or cyclin E-complexed CDK2 was included. […] Kinase activity was measured following addition of 1 μl of 2 mCi/ml [γ-^32P] […] The reaction was stopped by adding SDS sample buffer, and phosphorylated proteins were analyzed by SDS-PAGE followed by autoradiography and PhosphorImager® analysis.

[2] = molecular target: T1, GST-cyclinA (Homo sapiens, UniProt P20248); assay type: binding; details: purified HPV16E7 4 μg; SDS-PAGE and immunoblotting
T1 construct: made in house; host or cells: High Five insect cells, baculovirus

[3] = molecular target: T2, CDK2 (Homo sapiens, UniProt P20248+P24941); assay type: biochemical
T2 construct: hemagglutinin (HA); made in house; host or cells: Sf9 or High Five insect cells, baculovirus co-infection

[4] = molecular target: T3, cyclin A/CDK2 (Homo sapiens, UniProt P20248+P24941); assay type: biochemical
T3 construct: hemagglutinin (HA); made in house; host or cells: Sf9 or High Five insect cells, baculovirus co-infection

[5] = molecular target: T4, HA-CDK2 (Homo sapiens, UniProt P24941); assay type: binding
T4 construct: made in house; host or cells: High Five insect cells, baculovirus

[6] = molecular target: T5, cyclin E/CDK2 (Homo sapiens, UniProt P24941); assay type: biochemical
T5 construct: hemagglutinin (HA); made in house; host or cells: Sf9 or High Five insect cells, baculovirus co-infection

[7] = molecular target: CDK5 complexed with p25 (Homo sapiens, UniProt Q00535); assay: Kinase assay CDK5/p25, histone H1 phosphorylation; assay type: biochemical; details: over controls
[8] = test system: MAP kinase 1; assay: Kinase assay MAP kinase 1; assay type: biochemical
Method: (§1) In an attempt to determine if the E7 effects on kinase activity were specific for members of the cyclin-dependent kinase family, various kinase/substrate combinations were examined for enhanced activity in the presence of E7.
(§2) When HPV16-E7 was added to either cyclinA/CDK2 or cyclinE/CDK2 using histoneH1 as the substrate, a large increase (26-fold and 13-fold) over controls was noted as described above. When the retinoblastoma (pRb) protein was used as a substrate for cyclinE/CDK2 a 1.9-fold increase over background was noted.

[9] = molecular target: CDC2/cyclinB (Homo sapiens, UniProt P06493); assay: Kinase assay CDC2/cyclinB; assay type: biochemical
Method: as §1, §2

T3 sequence (P20248 whole entry, one chain of several): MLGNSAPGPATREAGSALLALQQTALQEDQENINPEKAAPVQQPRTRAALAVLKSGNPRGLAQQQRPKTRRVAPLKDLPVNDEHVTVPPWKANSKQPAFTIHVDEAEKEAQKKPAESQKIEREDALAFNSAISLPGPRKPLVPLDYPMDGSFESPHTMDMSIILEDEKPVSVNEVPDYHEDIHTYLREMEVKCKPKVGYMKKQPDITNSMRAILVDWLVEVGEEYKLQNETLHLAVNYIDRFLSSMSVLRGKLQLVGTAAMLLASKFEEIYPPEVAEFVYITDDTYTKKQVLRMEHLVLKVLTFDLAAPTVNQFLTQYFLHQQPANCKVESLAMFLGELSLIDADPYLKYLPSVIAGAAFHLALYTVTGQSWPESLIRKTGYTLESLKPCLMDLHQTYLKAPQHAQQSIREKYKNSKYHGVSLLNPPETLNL
T2 sequence (P20248 whole entry, one chain of several): as above
T1 sequence (P20248 whole entry): as the sequence (P20248 whole entry, one chain of several) above
CDK5 complexed with p25, sequence (Q00535 whole entry): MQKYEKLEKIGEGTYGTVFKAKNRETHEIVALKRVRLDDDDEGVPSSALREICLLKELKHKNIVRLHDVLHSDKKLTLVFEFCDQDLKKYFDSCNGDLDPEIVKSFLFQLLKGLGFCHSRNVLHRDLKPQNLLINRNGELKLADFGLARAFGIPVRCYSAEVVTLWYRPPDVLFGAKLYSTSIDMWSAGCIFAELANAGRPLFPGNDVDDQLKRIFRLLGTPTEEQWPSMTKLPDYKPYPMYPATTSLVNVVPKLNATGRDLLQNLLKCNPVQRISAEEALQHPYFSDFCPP
CDK5 complexed with p25, sequence (Q15078 99-307 partner limits assumed): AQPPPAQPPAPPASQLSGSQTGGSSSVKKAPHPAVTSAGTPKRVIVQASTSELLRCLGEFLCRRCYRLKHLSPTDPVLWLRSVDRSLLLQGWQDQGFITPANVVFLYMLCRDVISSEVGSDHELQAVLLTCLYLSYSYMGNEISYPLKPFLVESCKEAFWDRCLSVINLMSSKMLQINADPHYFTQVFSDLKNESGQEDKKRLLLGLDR
CDC2/cyclinB, sequence (P06493 whole entry, species assumed): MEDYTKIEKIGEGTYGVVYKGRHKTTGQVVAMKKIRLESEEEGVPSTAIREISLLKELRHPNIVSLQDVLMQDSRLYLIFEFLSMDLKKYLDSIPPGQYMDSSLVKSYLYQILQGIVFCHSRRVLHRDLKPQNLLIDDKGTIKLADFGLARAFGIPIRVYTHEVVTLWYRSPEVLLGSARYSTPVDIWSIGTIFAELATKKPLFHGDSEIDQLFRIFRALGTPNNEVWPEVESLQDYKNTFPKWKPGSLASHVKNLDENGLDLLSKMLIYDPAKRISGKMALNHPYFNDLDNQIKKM
CDC2/cyclinB, sequence (P14635 whole entry partner, species assumed): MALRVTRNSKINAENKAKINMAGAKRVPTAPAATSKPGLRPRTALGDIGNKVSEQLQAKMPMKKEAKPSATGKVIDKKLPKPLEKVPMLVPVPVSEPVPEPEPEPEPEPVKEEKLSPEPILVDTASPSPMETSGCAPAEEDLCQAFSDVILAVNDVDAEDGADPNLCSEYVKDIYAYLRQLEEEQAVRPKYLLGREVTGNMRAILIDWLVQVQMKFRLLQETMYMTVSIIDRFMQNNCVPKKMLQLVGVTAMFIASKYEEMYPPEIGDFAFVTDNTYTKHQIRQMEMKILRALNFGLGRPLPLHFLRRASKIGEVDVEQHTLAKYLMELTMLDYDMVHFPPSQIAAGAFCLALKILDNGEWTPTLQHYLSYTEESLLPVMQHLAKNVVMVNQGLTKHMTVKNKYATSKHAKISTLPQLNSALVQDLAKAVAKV

| Molecule | effect on p21- and p27-dependent inhibition of cyclin E/CDK2 activity ([1]; histone H1 substrate) | effect on p27 inhibition of CDK2 activity ([1]; purified cyclin E/CDK2 and cyclin A/CDK2, solution kinase assay) | binding to beads containing GST-cyclinA [2] | peak stimulatory activity (concentration) [3] | EC50 ([3]; read-out: 50% stimulatory concentration of E7) [nM] | phosphorylation of HPV E2 by CDK2/cyclinA [4] | binding to beads with immobilized HA-CDK2 [5] | increase in cyclinE/CDK2 kinase activity [6] [fold] | increase in pRb kinase activity [6] [fold] | stimulation of cyclin E/CDK2 phosphorylation of MBP-HPV 18 E1 fusion protein [6] [fold] | increase in H1 phosphorylation by CDK5 complexed with p25 [7] [fold] | MAP kinase 1 activity [8] | effect on cyclin A/CDK2 histone H1 kinase activity [4] | Km ([4]; read-out: Km for histone H1) [µM] | CDC2/cyclinB activity [9] |
| --- | --- | --- | --- | --- | --- | --- | --- | --- | --- | --- | --- | --- | --- | --- | --- |
| E7: HPV E7 protein or GST-E7 fusion, strain not named at the place; b203 used purified HPV16E7 | little or no effect | little or no effect | binding | approximately 0.29 μM | ~180 | enhanced | no binding | – | – | – | – | – | – | – | – |
| B1 | – | – | – | – | – | – | – | 13 | 1.9 | 2.3 | 4.5 | unaffected | significant effect | 1.1 | unaffected |
